Data as given in US20240309093A1 (MINGHUI PHARMACEUTICAL HANGZHOU, published 2024).
Where two headings read alike, the source gives them in different places.

B1: Pembrolizumab (antibody, human IgG4 S228P, kappa, V domains shown)
VH: QVQLVQSGVEVKKPGASVKVSCKASGYTFTNYYMYWVRQAPGQGLEWMGGINPSNGGTNFNEKFKNRVTLTTDSSTTTAYMELKSLQFDDTAVYYCARRDYRFDMGFDYWGQGTTVTVSS
VL: EIVLTQSPATLSLSPGERATLSCRASKGVSTSGYSYLHWYQQKPGQAPRLLIYLASYLESGVPARFSGSGSGTDFTLTISSLEPEDFAVYYCQHSRDLPLTFGGGTKVEIKR
B2: MHPD1-A-7 H Fc (Fc fusion)
chain: QVQLVESGGGLVQPGGSLRLSCATSGSRRSIYAMGWFRQAPGKGLEFVAGIGWAYATTYYADSVKGRFTISRDNTKNTLYLQMNSLRAEDTAVYYCAADLDHSGFDYWGQGTLVTVSS
notes: parent of the second round; also called parent MHPD1-A-7 H Fc; not shown: Fc
B3: MHPD1-A-H19 Fc (Fc fusion, not shown: a dimerising Fc or GST; small tags and cut ends)
VHH: QVQLVESGGGLVQPGGSLRLSCAASGSDPSIYAMGWFRQAPGKGLEFVAGIGWSAATTYYADSVKGRFTISRDNTKNTLYLQMNSLRAEDTAVYYCAADLDHSGFDYWGQGTLVTVSS
notes: Second round of humanization; also called humanized nanobody-Fc fusion protein; parent MHPD1-A-H19 Fc
B4: MHPD1-A-3 H Fc (Fc fusion, not shown: a dimerising Fc or GST; small tags and cut ends)
VHH: QVQLVESGGGLVQPGGSLRLSCAASGSGRSIYAMGWFRQAPGKGLEFVAGIGWSYATTYYADSVKGRFTISRDNTKNTLYLQMNSLRAEDTAVYYCAADLDHSGFDYWGQGTLVTVSS
B5: MHPD1-A-H15 Fc (Fc fusion, not shown: a dimerising Fc or GST; small tags and cut ends)
VHH: QVQLVESGGGSVQPGGSLRLSCAASGSDPSIYAMGWFRQAPGKEHEFVAGIGWSAATTYYADSVKGRFTISRDNTKNTLYLQMNSLRAEDTAIYYCAADLDHSGFDYWGQGTLVTVSS
notes: Second round of humanization of MHPD1-A; also called humanized nanobody-Fc fusion protein
B6: MHPD1-A-4 H Fc (Fc fusion, not shown: a dimerising Fc or GST)
chain: QVQLVESGGGLVQPGGSLRLSCAASGSVGSIYAMGWFRQAPGKGLEFVAGIGWAFATTYYADSVKGRFTISRDNTKNTLYLQMNSLRAEDTAVYYCAADLDHSGFDYWGQGTLVTVSS
B7: MHPD1-A-H14 Fc (Fc fusion, not shown: a dimerising Fc or GST; small tags and cut ends)
VHH: QVQLVESGGGSVQPGGSLRLSCAASGSDPSIYAMGWFRQAPGKEHEFVAGIGWSAATTYYADSVKGRFGISRDNTKNTVYLQMNSLRAEDTAIYYCAADLDHSGFDYWGQGTLVTVSS
notes: as for B5
B8: MHPD1-A-H12 Fc (Fc fusion, not shown: a dimerising Fc or GST; small tags and cut ends)
VHH: QVQLVESGGGSVQPGGSLRLSCAASGSDPSIYAMGWFRQAPGKEHEFVAGIGWSAATTYYADSVKGRFTISRDNTKNTLALLMNSLRAEDTAIYYCAADLDHSGFDYWGQGTLVTVSS
notes: as for B5
B9: MHPD1-A-H17 Fc (Fc fusion, not shown: a dimerising Fc or GST; small tags and cut ends)
VHH: QVQLVESGGGSVQPGGSLRLSCAASGSDPSIYAMGWFRQAPGKGLEFVAGIGWSAATTYYADSVKGRFTISRDNTKNTLYLQMNSLRAEDTAIYYCAADLDHSGFDYWGQGTLVTVSS
notes: as for B5
B10: MHPD1-A-H16 Fc (Fc fusion, not shown: a dimerising Fc or GST; small tags and cut ends)
VHH: QVQLVESGGGLVQPGGSLRLSCAASGSDPSIYAMGWFRQAPGKEHEFVAGIGWSAATTYYADSVKGRFGISRDNTKNTVALLMNSLRAEDTAVYYCAADLDHSGFDYWGQGTLVTVSS
notes: as for B5
B11: MHPD1-A-H18 Fc (Fc fusion, not shown: a dimerising Fc or GST; small tags and cut ends)
VHH: QVQLVESGGGLVQPGGSLRLSCAASGSDPSIYAMGWFRQAPGKGLEFVAGIGWSAATTYYADSVKGRFTISRDNTKNTLYLQMNSLRAEDTAIYYCAADLDHSGFDYWGQGTLVTVSS
notes: as for B5
B12: MHPD1-A-H1 Fc (Fc fusion, not shown: a dimerising Fc or GST; small tags and cut ends)
VHH: QVQLVESGGGSVQPGGSLTLSCAASGSDPSIYAMGWFRQAPGKEHEFVAGIGWSAATTYYADSVKGRFGISRDNTKNTVALLMNSLKPEDTAIYYCAADLDHSGFDYWGQGTLVTVSS
notes: First round of humanization of MHPD1-A; also called humanized nanobody-Fc fusion protein
B13: MHPD1-A-H2 Fc (Fc fusion, not shown: a dimerising Fc or GST; small tags and cut ends)
VHH: QVQLVESGGGSVQVGGSLRLSCAASGSDPSIYAMGWFRQAPGKEHEFVAGIGWSAATTYYADSVKGRFGISRDNTKNTVALLMNSLRAEDTAIYYCAADLDHSGFDYWGQGTQVTVSS
notes: as for B12
B14: MHPD1-A-H10 Fc (Fc fusion, not shown: a dimerising Fc or GST; small tags and cut ends)
VHH: QVQLVESGGGSVQPGGSLRLSCAASGSDPSIYAMGWFRQAPGKEHEFVAGIGWSAATTYYADSVKGRFTISRDNTKNTLALLMNSLKPEDTAIYYCAADLDHSGFDYWGQGTLVTVSS
notes: as for B12
B15: MHPD1-A-H9 Fc (Fc fusion, not shown: a dimerising Fc or GST; small tags and cut ends)
VHH: QVQLVESGGGSVQPGGSLRLSCAASGSDPSIYAMGWFRQAPGKEHEFVAGIGWSAATTYYADSVKGRFGISRDNTKNTVALLMNSLRAEDTAIYYCAADLDHSGFDYWGQGTLVTVSS
notes: also called humanized nanobody-Fc fusion protein
B16: MHPD1-A-H3 Fc (Fc fusion, not shown: a dimerising Fc or GST; small tags and cut ends)
VHH: QVQLVESGGGSVQVGGSLTLSCAASGSDPSIYAMGWFRQAPGKEHEFVAGIGWSAATTYYADSVKGRFGISRDNTKNTLALLMNSLKPEDTAIYYCAADLDHSGFDYWGQGTQVTVSS
notes: as for B12
B17: MHPD1-A-H5 Fc (Fc fusion, not shown: a dimerising Fc or GST; small tags and cut ends)
VHH: QVQLVESGGGSVQVGGSLTLSCAASGSDPSIYAMGWFRQAPGKEHEFVAGIGWSAATTYYADSVKGRFGISRDNTKNTVYLQMNSLKPEDTAIYYCAADLDHSGFDYWGQGTQVTVSS
notes: as for B12
B18: MHPD1-A-H8 Fc (Fc fusion, not shown: a dimerising Fc or GST; small tags and cut ends)
VHH: QVQLVESGGGSVQVGGSLTLSCAASGSDPSIYAMGWFRQAPGKGLEFVAGIGWSAATTYYADSVKGRFGISRDNTKNTVALLMNSLKPEDTAIYYCAADLDHSGFDYWGQGTQVTVSS
notes: as for B12
B19: MHPD1-A-H6 Fc (Fc fusion, not shown: a dimerising Fc or GST; small tags and cut ends)
VHH: QVQLVESGGGSVQVGGSLTLSCAASGSDPSIYAMMWFRQAPGKEHEFVAGIGWSAATTYYADSVKGRFGISRDNTKNTVALLMNSLKPEDTAIYYCAADLDHSGFDYWGQGTQVTVSS
notes: as for B12
B20: MHPD1-A-H7 Fc (Fc fusion, not shown: a dimerising Fc or GST; small tags and cut ends)
VHH: QVQLVESGGGSVQVGGSLTLSCAASGSDPSIYAMMWFRQAPGKEHEFVAGIGWSAATTYYADSVKGRFGISRDNSKNTVALLMNSLKPEDTAIYYCAADLDHSGFDYWGQGTQVTVSS
notes: as for B12

Legend:
[1] = molecular target: PD1 on Jurkat-NFAT-PD1 transgene cells; test: cell-based or functional assay
[2] = molecular target: T1, recombinant human PD-1-his protein (human, UniProt Q15116 25-167); test: ELISA; PD-1-his coated 2 µg/mL, anti-human IgG Fc-HRP
T1 construct: also called hPD-1-his; not shown: his tag
Experimental: (§1) The plates were washed three times with PBST. 5% PBS-Milk was added and incubated at room temperature for 2 h. The plates were washed three times with PBST. All the nanobody-Fc fusion proteins were subject to 3-fold gradient dilutions with an initial concentration of 10 μg/mL, added into each well at 30 μL/well, and incubated at room temperature for 1 hr. The plates were washed three times with PBST. The secondary antibody Goat-Anti-Human-IgG-Fc-HRP was diluted at 1:8000, added into each well at 30 μL/well, and incubated at room temperature for 50 min. The plates were washed nine times with PBST. TMB was added into each well at 30 μL/well and developed at room temperature in dark for 1 min to 5 min. 2 M hydrochloric acid was added at 30 μL/well to stop the reaction. The OD450 absorbance value was read by a microplate reader. Graphpad Prism software was used to fit the curve and calculate the EC₅₀ value (see Table 7).

[3] = molecular target: T1, recombinant human PD-1-his protein; test: as above; remark: listed apart in the source
Experimental: as §1, with “PBS-Milk” for “PBS-Milk was added”, “3-folded” for “3-fold”, “dilution” for “dilutions”, “calculate” for “calculate the”, “values.” for “value (see Table 7).”

[4] = molecular target: T2, recombinant human PD-1-Fc-Biotin (human, UniProt Q15116 25-167, biotin (site not stated)); test: competitive ELISA; PD-L1-mFc coated, 0.5 µg/mL PD-1-Fc-Biotin, streptavidin-HRP
T2 construct: also called antigen protein human PD-1; not shown: Fc
Experimental: (§2) The plates were washed three times with PBST. 5% PBS-Milk was added and incubated at room temperature for 1 hr. All the nanobody-Fc fusion proteins were subject to 3-fold gradient dilutions with an initial concentration of 10 μg/mL, added into each well at 30 μL/well, and incubated at room temperature for 1 hr. […] The well plates were washed with PBST between incubations.

[5] = molecular target: T2, recombinant human PD-1-Fc-Biotin; test: as above; remark: listed apart in the source
Experimental: as §2, with “The” for “The well”

[6] = molecular target: T1, recombinant human PD-1-his protein; test: ELISA (second round of humanization); PD-1-his coated 2 µg/mL, anti-human IgG Fc-HRP
Experimental: (§3) 96-well ELISA plates were coated with 2 μg/mL of recombinant human PD-1-his antigen protein at 30 μL/well at 4° C. overnight. The plates were washed three times with PBST. 5% PBS-Milk was added and incubated at room temperature for 2 h. The plates were washed three times with PBST. All the nanobody-Fc fusion proteins were subject to 3-fold gradient dilutions with an initial concentration of 10 μg/mL, added into each well at 30 μL/well, and incubated at room temperature for 1 hr. The plates were washed three times with PBST. The secondary antibody Goat-Anti-Human-IgG-Fc-HRP (purchased from Sigma) was diluted at 1:8000, added into each well at 30 μL/well, and incubated at room temperature for 50 min. The plates were washed three times with PBST. TMB (purchased from SurModics) was added into each well at 30 μL/well and developed at room temperature in dark for 1 min to 5 min. 2 M hydrochloric acid was added at 30 μL/well to stop the reaction. The OD450 absorbance value was read by a microplate reader.

[7] = molecular target: T1, recombinant human PD-1-his protein; test: ELISA (first round of humanization); PD-1-his coated 2 µg/mL, anti-human IgG Fc-HRP
Experimental: as §3

T1 sequence (Q15116 25-167 limits assumed): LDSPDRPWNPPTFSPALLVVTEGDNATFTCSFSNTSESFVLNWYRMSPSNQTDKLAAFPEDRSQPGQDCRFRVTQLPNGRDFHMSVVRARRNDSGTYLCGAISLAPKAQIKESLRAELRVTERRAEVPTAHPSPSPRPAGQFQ
T2 sequence (Q15116 25-167 limits assumed): as above

| Binder | EC50 [6] | EC50 [7] | further results |
| --- | --- | --- | --- |
| B1 |  |  | luciferase reporter gene fluorescence signal, Jurkat-NFAT-PD1 effector cells with Hep3B-OS8-PDL1 target cells (EC50) [1]: 0.091 nM |
| B2 |  |  | luciferase reporter gene fluorescence signal, Jurkat-NFAT-PD1 effector cells with Hep3B-OS8-PDL1 target cells (EC50) [1]: 0.07 nM; EC50 [2]: 0.135 nM; EC50 [3]: 0.149 nM; IC50 [4]: 0.316 nM; IC50 [5]: 0.778 nM |
| B3 | 0.55 nM |  | EC50 [2]: 0.369 nM; IC50 [4]: 1.31 nM |
| B4 |  |  | luciferase reporter gene fluorescence signal, Jurkat-NFAT-PD1 effector cells with Hep3B-OS8-PDL1 target cells (EC50) [1]: 0.078 nM; EC50 [2]: 0.251 nM; IC50 [4]: 0.275 nM |
| B5 | 2.15 nM |  |  |
| B6 |  |  | luciferase reporter gene fluorescence signal, Jurkat-NFAT-PD1 effector cells with Hep3B-OS8-PDL1 target cells (EC50) [1]: 0.09 nM; EC50 [2]: 0.169 nM; IC50 [4]: 0.281 nM |
| B7 | 1.88 nM |  |  |
| B8 | 4.32 nM |  |  |
| B9 | 0.64 nM |  |  |
| B10 | 2.29 nM |  |  |
| B11 | 1.29 nM |  |  |
| B12 |  | 0.24 mg/L |  |
| B13 |  | 0.22 mg/L |  |
| B14 |  | 0.32 mg/L |  |
| B15 |  | 0.15 mg/L |  |
| B16 |  | 0.16 mg/L |  |
| B17 |  | 0.35 mg/L |  |
| B18 |  | 0.2 mg/L |  |
| B19 |  | 2.91 mg/L |  |
| B20 |  | 2.54 mg/L |  |
